The values that follow come from paper PMC4794571.

Data set [1] has as its target biotin-IgE (indirect labeling) (UniProt P01854). Nature of the data set: microarray fluorescence. The following applies: indirect label, PBSMTB for IgE microarrays (full recipe not in material; PBS-based wash: 8.1 mM Na2HPO4, 137 mM NaCl, 1 mM MgCl2, pH 7.4), temperature not stated, thrombin ….
The target in data set [2] is Cy3-IgE (direct labeling) (UniProt P01854). The experiment in a line: microarray fluorescence. The following applies: direct label, PBSMTB for IgE microarrays (full recipe not in material; PBS-based wash: 8.1 mM Na2HPO4, 137 mM NaCl, 1 mM MgCl2, pH 7.4), temperature not stated, thrombin ….
Data set [3] has as its target IgE (cited assays) (human) (UniProt P01854). Nature of the data set: filter binding. The settings on record: PBSMTB for IgE microarrays (full recipe not in material; PBS-based wash: 8.1 mM Na2HPO4, 137 mM NaCl, 1 mM MgCl2, pH 7.4), temperature not stated, thrombin …, cited from earlier work.
The target is the same in data set [4]. The experiment in a line: SPR. The following applies: PBSMTB for IgE microarrays (full recipe not in material; PBS-based wash: 8.1 mM Na2HPO4, 137 mM NaCl, 1 mM MgCl2, pH 7.4), temperature not stated, thrombin …, cited from earlier work.
The target is the same in data set [5]. The experiment in a line: fluorescence anisotropy. The following applies: not immobilized; PBSMTB for IgE microarrays (full recipe not in material; PBS-based wash: 8.1 mM Na2HPO4, 137 mM NaCl, 1 mM MgCl2, pH 7.4); temperature not stated; thrombin …; cited from earlier work.
[6] abbreviates: T linker, T linker to array surface.
Where [7] appears, read: C linker, C linker to array surface.
The mark [8] stands for this setting: A linker, A linker to array surface.
[9] abbreviates: G linker, G linker to array surface.

For “TGGGCACGTTTATCCGTCCCTCCTAGTGGCGTGCCCC [IgE_D17-4_SM1]”, the Kd in data set [1] (setting [6]) was found to be 28.8 nM; in data set [2] (setting [6]) it was 79.9 nM.

“CACGTTTATCCGTCCCTCCTAGTGGCGTG [IgE_17-1, cited assay]”: the Kd in data set [3] (solution) is 82 nM.

Regarding “AGGGCACGTTTATCCGTCCCTCCTAGTGGCGTGCCCT [IgE_D17-4_DM1_37]”, the equilibrium dissociation constant (Kd) in data set [1] (setting [6]) was found to be 29.9 nM; in data set [2] (setting [6]), 82.3 nM.

The sequence “CACGTTTATCCGTCCCTCCTAGTGGCGTG [IgE_17-1 (IgE_D17-1)]” gave a Kd in data set [1] (setting [6]) of 73.4 nM.

On to “GGGGCACGTTTATCCGTCCCTCCTAGTGGCGTGCCCC [IgE_17-4, C linker]”, for which the results for the equilibrium dissociation constant (Kd) in data set [1] (setting [7]) and in data set [2] (setting [7]) were 30.8 nM and 61.8 nM, respectively.

“GGGGCACGTTTATCCGTCCCTCCTAGTGGCGTGCCCC [IgE_17-4, A linker]”: the Kd in data set [1] (setting [8]) came to 30.9 nM; in data set [2] (setting [8]), 63.7 nM.

Regarding “GGGGCACGTTTATCCGTCCCTCCTAGTGGCGTGCCCC [IgE_17-4 (IgE_D17-4), T linker]”, the dissociation constant Kd came to 29.5 nM in data set [1] (setting [6]) and 66.3 nM in data set [2] (D/P 2.4, T linker 10-15, T linker to array surface).

As to “GGGGCACGTTTATCCGTCCCTCCTAGTGGCGTGCCCC [IgE_17-4, G linker]”, the figures for the dissociation constant (Kd) in data set [1] (setting [9]) and in data set [2] (setting [9]) were 29.5 nM and 86.5 nM, respectively.

As for “GGGGCACGTTTATCCGTCCCTCCTAGTGGCGTGCCCC [IgE_17-4, cited assays]”, the Kd in data set [4] (aptamer immobilized on surface) was 74.8 nM; in data set [4] (aptamer not immobilized) it was 4.7 nM; in data set [5], 15 nM; in data set [3] (not immobilized), 9 nM.
